The results in this text go back to paper PMC7087056 (The Yale Journal of Biology and Medicine, 2020).

For this experiment, the target named is T1, His6-K10^C401A-2B (human keratin 10 helix 2B domain with C401A, His6 tag kept) (human, UniProt P13645 337-456, C401A).
T1 sequence (looked up): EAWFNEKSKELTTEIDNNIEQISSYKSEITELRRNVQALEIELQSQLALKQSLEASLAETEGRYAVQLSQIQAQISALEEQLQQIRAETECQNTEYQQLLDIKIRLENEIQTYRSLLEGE
The experiment is described as follows: pull-down.

B1: human keratin 1 helix 2B domain (K1-2B) (domain or fragment, UniProt P04264 370-489, looked up)
chain: ESLYQSKYEELQITAGRHGDSVRNSKIEISELNRVIQRLRSEIDNVKKQISNLQQSISDAEQRGENALKDAKNKLNDLEDALQQAKEDLARLLRDYQELMNTKLALDLEIATYRTLLEGE
In general, stoichiometry N refers to the number of molecules, sites or subunits per partner or assembly. Turning to B1, the “stoichiometry N” value came out at 1.
